The values that follow come from IntAct's records for PubMed 31515488.

First the molecules themselves.
B1: Protein FAM13C (Homo sapiens), Q8NE31 (parent)
chain: MFSCFCFSLQDNSFSSTTVTECDEDPVSLHEDQTDCSSLRDENNKENYPDAGALVEEHAPPSWEPQQQNVEATVLVDSVLRPSMGNFKSRKPKSIFKAESGRSHGESQETEHVVSSQSECQVRAGTPAHESPQNNAFKCQETVRLQPRIDQRTAISPKDAFETRQDLNEEEAAQVHGVKDPAPASTQSVLADGTDSADPSPVHKDGQNEADSAPEDLHSVGTSRLLYHITDGDNPLLSPRCSIFSQSQRFNLDPESAPSPPSTQQFMMPRSSSRCSCGDGKEPQTITQLTKHIQSLKRKIRKFEEKFEQEKKYRPSHGDKTSNPEVLKWMNDLAKGRKQLKELKLKLSEEQGSAPKGPPRNLLCEQPTVPRENGKPEAAGPEPSSSGEETPDAALTCLKERREQLPPQEDSKVTKQDKNLIKPLYDRYRIIKQILSTPSLIPTIQEEEDSDEDRPQGSQQPSLADPASHLPVGDHLTYSNETEPVRALLPDEKKEVKPPALSMSNLHEATMPVLLDHLRETRADKKRLRKALREFEEQFFKQTGRSPQKEDRIPMADEYYEYKHIKAKLRLLEVLISKQDVAKTI
partner: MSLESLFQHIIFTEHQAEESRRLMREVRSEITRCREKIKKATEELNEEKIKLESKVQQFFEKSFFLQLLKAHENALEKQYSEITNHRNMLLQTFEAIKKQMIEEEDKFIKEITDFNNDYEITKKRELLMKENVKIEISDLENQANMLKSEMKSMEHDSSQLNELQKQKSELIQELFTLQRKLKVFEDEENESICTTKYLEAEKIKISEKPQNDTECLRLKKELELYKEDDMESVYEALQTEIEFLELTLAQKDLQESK
B2: Sodium channel modifier 1 (Homo sapiens), Q9BWG6 (parent)
chain: MSFKREGDDWSQLNVLKKRRVGDLLASYIPEDEALMLRDGRFACAICPHRPVLDTLAMLTAHRAGKKHLSSLQLFYGKKQPGKERKQNPKHQNELRREETKAEAPLLTQTRLITQSALHRAPHYNSCCRRKYRPEAPGPSVSLSPMPPSEVKLQSGKISREPEPAAGPQAEESATVSAPAPMSPTRRRALDHYLTLRSSGWIPDGRGRWVKDENVEFDSDEEEPPDLPLD
B3: Isoform 1 of Nuclear RNA export factor 3 (Homo sapiens), Q9H4D5-1 (parent)
chain: MSLPSGHTTGHTDQVVQRRARCWDIYQRRFSSRSEPVNPGMHSSSHQQQDGDAAMHGAHMDSPVRYTPYTISPYNRKGSFRKQDQTHVNMEREQKPPERRMEGNMPDGTLGSWFKITVPFGIKYNEKWLLNLIQNECSVPFVPVEFHYENMHASFFVENASIAYALKNVSGKIWDEDNEKISIFVNPAGIPHFVHRELKSEKVEQIKLAMNQQCDVSQEALDIQRLPFYPDMVNRDTKMASNPRKCMAASLDVHEENIPTVMSAGEMDKWKGIEPGEKCADRSPVCTTFSDTSSNINSILELFPKLLCLDGQQSPRATLCGTEAHKRLPTCKGSFFGSEMLKNLVLQFLQQYYLIYDSGDRQGLLSAYHDEACFSLSIPFNPEDSAPSSFCKFFKDSRNIKILKDPYLRGELLKHTKLDIVDSLSALPKTQHDLSSFLVDMWYQTEWMLCFSVNGVFKEVEGQSQGSVLAFTRTFIATPGSSSSLCIVNDKLFVRDTSHQGTQSALFTLVPTAFSSSVPAFSQEQQKMLPS
partner: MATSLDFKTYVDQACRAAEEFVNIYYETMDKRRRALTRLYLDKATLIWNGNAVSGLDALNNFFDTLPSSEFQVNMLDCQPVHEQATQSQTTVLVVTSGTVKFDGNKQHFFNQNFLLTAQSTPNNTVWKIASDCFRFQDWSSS
B4: Zinc finger protein Aiolos (Homo sapiens), Q9UKT9 (parent)
chain: MEDIQTNAELKSTQEQSVPAESAAVLNDYSLTKSHEMENVDSGEGPANEDEDIGDDSMKVKDEYSERDENVLKSEPMGNAEEPEIPYSYSREYNEYENIKLERHVVSFDSSRPTSGKMNCDVCGLSCISFNVLMVHKRSHTGERPFQCNQCGASFTQKGNLLRHIKLHTGEKPFKCHLCNYACQRRDALTGHLRTHSVEKPYKCEFCGRSYKQRSSLEEHKERCRTFLQSTDPGDTASAEARHIKAEMGSERALVLDRLASNVAKRKSSMPQKFIGEKRHCFDVNYNSSYMYEKESELIQTRMMDQAINNAISYLGAEALRPLVQTPPAPTSEMVPVISSMYPIALTRAEMSNGAPQELEKKSIHLPEKSVPSERGLSPNNSGHDSTDTDSNHEERQNHIYQQNHMVLSRARNGMPLLKEVPRSYELLKPPPICPRDSVKVINKEGEVMDVYRCDHCRVLFLDYVMFTIHMGCHGFRDPFECNMCGYRSHDRYEFSSHIARGEHRALLK
partner: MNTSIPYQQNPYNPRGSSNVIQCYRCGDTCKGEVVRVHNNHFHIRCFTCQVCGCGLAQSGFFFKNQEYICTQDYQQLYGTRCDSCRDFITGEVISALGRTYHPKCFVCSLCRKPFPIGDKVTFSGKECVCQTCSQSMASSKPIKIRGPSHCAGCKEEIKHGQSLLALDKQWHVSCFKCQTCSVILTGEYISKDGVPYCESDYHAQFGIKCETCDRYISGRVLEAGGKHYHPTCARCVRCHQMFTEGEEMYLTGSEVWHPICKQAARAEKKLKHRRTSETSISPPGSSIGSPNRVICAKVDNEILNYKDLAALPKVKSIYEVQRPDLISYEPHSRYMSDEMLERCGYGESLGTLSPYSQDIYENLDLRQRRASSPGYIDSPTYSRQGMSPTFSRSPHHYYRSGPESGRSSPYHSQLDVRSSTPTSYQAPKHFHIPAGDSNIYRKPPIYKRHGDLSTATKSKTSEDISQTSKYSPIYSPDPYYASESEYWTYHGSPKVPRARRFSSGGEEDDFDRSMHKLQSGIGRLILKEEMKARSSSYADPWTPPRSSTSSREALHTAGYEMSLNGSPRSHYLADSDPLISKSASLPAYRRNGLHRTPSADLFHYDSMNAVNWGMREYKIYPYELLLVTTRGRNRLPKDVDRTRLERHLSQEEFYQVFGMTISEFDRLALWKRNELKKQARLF
B5: Zinc finger protein 655 (Homo sapiens), Q8N720 (parent)
chain: MEEIPAQEAAGSPRVQFQSLETQSECLSPEPQFVQDTDMEQGLTGDGETREENKLLIPKQKISEEVHSYKVRVGRLKHDITQVPETREVYKSEDRLERLQEILRKFLYLEREFRQITISKETFTSEKNNECHEPEKSFSLDSTIDADQRVLRIQNTDDNDKYDMSFNQNSASGKHEHLNLTEDFQSSECKESLMDLSHLNKWESIPNTEKSYKCDVCGKIFHQSSALTRHQRIHTREKPYKCKECEKSFSQSSSLSRHKRIHTREKPYKCEASDKSCEASDKSCSPSSGIIQHKKIHTRAKSYKCSSCERVFSRSVHLTQHQKIHKEMPCKCTVCGSDFCHTSYLLEHQRVHHEEKAYEYDEYGLAYIKQQGIHFREKPYTCSECGKDFRLNSHLIQHQRIHTGEKAHECNECGKAFSQTSCLIQHHKMHRKEKSYECNEYEGSFSHSSDLILQQEVLTRQKAFDCDVWEKNSSQRAHLVQHQSIHTKENS

The variants in one experiment derive from B1. The note with it: with cc172_human CCDC172, P0C7W6.
For the variant P147S, the “effect of a mutation on the interaction” value is listed as “with no effect”.

In the next experiment the parent is B2. As to conditions: with hm20a_human HMG20A.
Consider R206P, for which the “effect of a mutation on the interaction” value is recorded as “with no effect”.

A further experiment covers variants of B2. The note with it: with trim1_human MID2, Q9UJV3.
trim1_human MID2, Q9UJV3, sequence (Q9UJV3 whole entry): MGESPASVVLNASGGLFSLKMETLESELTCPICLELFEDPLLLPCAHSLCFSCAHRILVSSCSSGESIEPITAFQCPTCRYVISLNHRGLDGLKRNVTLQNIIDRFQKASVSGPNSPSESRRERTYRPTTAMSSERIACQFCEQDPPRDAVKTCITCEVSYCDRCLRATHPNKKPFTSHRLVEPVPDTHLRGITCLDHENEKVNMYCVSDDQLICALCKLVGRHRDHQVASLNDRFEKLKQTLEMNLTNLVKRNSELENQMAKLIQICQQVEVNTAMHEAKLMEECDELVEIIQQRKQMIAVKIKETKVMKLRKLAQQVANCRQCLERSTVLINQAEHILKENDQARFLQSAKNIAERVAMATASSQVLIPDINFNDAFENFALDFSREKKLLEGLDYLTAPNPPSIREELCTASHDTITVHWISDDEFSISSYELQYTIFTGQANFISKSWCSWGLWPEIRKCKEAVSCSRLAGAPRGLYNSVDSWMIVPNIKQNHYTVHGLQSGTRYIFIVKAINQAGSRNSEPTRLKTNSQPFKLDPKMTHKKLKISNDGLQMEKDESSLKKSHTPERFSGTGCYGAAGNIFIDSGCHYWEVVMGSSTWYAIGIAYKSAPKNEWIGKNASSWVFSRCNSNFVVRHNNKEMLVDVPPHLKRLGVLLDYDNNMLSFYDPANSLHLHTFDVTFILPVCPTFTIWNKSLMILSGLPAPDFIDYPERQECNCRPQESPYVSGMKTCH
As for R206P, the “effect of a mutation on the interaction” value was “with no effect”.

The variants in a further experiment derive from B2. The note with it: with pls1_human PLSCR1, O15162.
pls1_human PLSCR1, O15162, sequence (O15162 whole entry): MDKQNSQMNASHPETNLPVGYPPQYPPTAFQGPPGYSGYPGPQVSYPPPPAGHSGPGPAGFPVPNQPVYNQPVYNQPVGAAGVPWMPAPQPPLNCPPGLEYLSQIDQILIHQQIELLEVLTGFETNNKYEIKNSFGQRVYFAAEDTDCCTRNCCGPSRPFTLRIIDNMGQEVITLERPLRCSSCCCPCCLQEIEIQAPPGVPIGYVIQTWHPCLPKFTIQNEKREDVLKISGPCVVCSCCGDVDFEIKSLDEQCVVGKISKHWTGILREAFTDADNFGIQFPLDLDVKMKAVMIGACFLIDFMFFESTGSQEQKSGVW
In the case of R206P, the “effect of a mutation on the interaction” value is on record as “with no effect”.

Variants of B2 are the subject of the next experiment. As to conditions: with inca1_human INCA1, Q0VD86.
inca1_human INCA1, Q0VD86, sequence (Q0VD86 whole entry): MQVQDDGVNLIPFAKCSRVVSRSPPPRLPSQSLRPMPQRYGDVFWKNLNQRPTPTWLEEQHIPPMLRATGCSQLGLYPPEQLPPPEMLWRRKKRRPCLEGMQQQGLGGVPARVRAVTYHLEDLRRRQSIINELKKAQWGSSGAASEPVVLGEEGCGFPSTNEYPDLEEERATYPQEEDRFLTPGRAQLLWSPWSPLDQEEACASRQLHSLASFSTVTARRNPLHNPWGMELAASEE
Take R206P: the “effect of a mutation on the interaction” value was “with no effect”.

Variants of B3 are the subject of the next experiment. As to conditions: with nxt2_human NXT2, Q9NPJ8.
With T9K, the “effect of a mutation on the interaction” value is reported as “with no effect”.

The variants in a further experiment derive from B3. As to conditions: with nxt2_human NXT2, Q9NPJ8. The source holds these as a separate data set.
Turning to R409W, the “effect of a mutation on the interaction” value is “disrupting interaction strength”.

Variants of B4 are the subject of another experiment. The note with it: with ablm3_human ABLIM3, O94929.
Take N119D: the “effect of a mutation on the interaction” value was “with no effect”. As for A24V, the “effect of a mutation on the interaction” value is “with no effect”.

Variants of B5 are the subject of another experiment. As to conditions: with rint1_human RINT1, Q6NUQ1.
rint1_human RINT1, Q6NUQ1, sequence (Q6NUQ1 whole entry): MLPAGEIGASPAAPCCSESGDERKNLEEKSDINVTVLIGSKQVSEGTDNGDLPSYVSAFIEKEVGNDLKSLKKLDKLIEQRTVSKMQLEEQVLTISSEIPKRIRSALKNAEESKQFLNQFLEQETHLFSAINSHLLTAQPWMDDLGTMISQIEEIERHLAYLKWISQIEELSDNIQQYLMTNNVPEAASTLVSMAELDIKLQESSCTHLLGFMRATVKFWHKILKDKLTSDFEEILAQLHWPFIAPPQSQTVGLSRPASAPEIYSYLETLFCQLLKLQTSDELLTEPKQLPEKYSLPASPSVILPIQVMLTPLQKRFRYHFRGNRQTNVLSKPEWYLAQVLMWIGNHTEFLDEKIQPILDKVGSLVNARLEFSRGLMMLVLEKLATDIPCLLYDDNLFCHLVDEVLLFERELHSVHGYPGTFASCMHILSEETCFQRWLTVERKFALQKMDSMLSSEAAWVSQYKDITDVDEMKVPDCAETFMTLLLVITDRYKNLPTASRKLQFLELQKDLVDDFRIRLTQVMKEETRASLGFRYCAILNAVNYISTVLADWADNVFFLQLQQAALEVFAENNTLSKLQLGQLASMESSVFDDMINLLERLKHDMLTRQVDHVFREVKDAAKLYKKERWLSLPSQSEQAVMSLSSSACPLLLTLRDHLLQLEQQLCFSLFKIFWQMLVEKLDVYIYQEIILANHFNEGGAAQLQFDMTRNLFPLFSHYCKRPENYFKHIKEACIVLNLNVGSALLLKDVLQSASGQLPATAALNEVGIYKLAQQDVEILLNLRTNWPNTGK
With S192R, the “effect of a mutation on the interaction” value is “with no effect”.

Variants of B5 are the subject of the next experiment. As to conditions: with int13_human INTS13, Q9NVM9.
int13_human INTS13, Q9NVM9, sequence (Q9NVM9 whole entry): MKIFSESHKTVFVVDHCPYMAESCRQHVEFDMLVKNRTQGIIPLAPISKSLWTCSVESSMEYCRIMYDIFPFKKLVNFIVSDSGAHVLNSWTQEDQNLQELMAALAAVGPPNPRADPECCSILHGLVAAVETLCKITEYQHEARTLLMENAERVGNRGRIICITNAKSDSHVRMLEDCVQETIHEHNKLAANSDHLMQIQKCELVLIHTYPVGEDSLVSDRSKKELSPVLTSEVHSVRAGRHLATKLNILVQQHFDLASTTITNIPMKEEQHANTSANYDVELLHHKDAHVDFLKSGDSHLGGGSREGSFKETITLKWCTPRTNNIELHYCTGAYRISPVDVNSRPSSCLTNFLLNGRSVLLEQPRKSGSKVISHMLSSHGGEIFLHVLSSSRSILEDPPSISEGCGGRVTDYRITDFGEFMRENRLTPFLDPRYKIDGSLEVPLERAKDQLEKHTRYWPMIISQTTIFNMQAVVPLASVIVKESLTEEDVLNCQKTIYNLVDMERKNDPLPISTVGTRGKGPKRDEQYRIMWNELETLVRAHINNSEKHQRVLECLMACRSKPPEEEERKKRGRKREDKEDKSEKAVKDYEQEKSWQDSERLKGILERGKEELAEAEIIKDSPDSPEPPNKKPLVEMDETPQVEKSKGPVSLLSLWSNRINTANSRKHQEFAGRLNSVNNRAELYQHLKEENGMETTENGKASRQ
As for C466G, the “effect of a mutation on the interaction” value is “with no effect”.
